Data set [1] in a line: Enzyme activity of the sample after each purification step. It is filed as biochemical. From the text: The sialyltransferase activity may be measured by a known method, for example, the process described in J. Biochem., 120, 104-110 (1996) (which is hereby incorporated by reference in its entirety). For example, the enzyme activity can be evaluated by performing an enzyme reaction using CMP-NeuAc (N-acetylneuraminic acid) as a sugar donor substrate and lactose as a sugar acceptor substrate and evaluating the amount of the reaction product, i.e., sialyllactose. Note that one enzyme unit (1 U) of sialyltransferase is defined as the amount of the enzyme required to transfer one micromole of sialic acid per minute.
Sialyltransferase activity was measured by a method described in J. Biochem., 120, 104-110 (1996) (which is hereby incorporated by reference in its entirety). Specifically, the enzyme reaction was performed using a reaction solution (30 μL) containing CMP-NeuAc (70 nmol, containing about 20000 cpm CMP-NeuAc in which NeuAc was labeled with ^14C; NeuAc represents N-acetylneuraminic acid) as a sugar donor substrate, lactose (1.25 μmol) as a sugar acceptor substrate, NaCl added to give a concentration of 0.5 M, and the enzyme prepared as described above. The enzyme reaction was carried out at 25° C. for about 10 to 180 minutes. After completion of the reaction, 1.97 mL of 5 mM phosphate buffer (pH 6.8) was added to the reaction solution, which was then applied to a Dowex 1×8 (PO4^3− form, 0.2×2 cm, manufactured by Bio-Rad Laboratories, Inc.) column. The radioactivity contained in the reaction product contained in the eluate (0 to 2 mL) from this column, that is, sialyllactose, was measured to calculate the enzyme activity. One enzyme unit (1 U) is defined as the amount of enzyme required to transfer one micromole of sialic acid per minute.
The enzyme activity was measured by the method described in J. Biochem., 120, 104-110 (1996), as in Example 1. The amount of the protein was measured using a Coomassie Protein Assay Reagent (manufactured by Pierce) in accordance with the instruction manual attached thereto. One enzyme unit (1 U) was defined as the amount of enzyme required to transfer one micromole of sialic acid per minute.

Data set [2] can be described thus: Confirmation of neuraminidase activity (long reaction, HPLC). Format: biochemical. Conditions: purified enzyme; PA-6′-sialyllactose signal decreased, PA-lactose signal increased with reaction time; FIG. 3-1. How it is done:
In the process described in Example 2(6), the reaction using the purified enzyme solution of the JT-SHIZ-119-derived recombinant β-galactoside-α2,6-sialyltransferase prepared in Example 3 was performed for a long time. The signal of the reaction product (PA-6′-sialyllactose, retention time: 4.02 min) decreased and the signal of the PA-lactose (retention time: 3.73 min), which was the original sugar acceptor substrate, increased in accordance with an increase in reaction time (FIG. 3-1).

In data set [3] the test system is JT-SHIZ-119-derived recombinant β-galactoside-α2,6-sialyltransferase N1C0 (neuraminidase activity). Put plainly: Substrate specificity of neuraminidase activity with PA-sugar chains, HPLC. Format: biochemical, Photobacterium leiognathi strain JT-SHIZ-119. Conditions: PA-sugar chains with α2,3-, α2,6- or α2,8-linked sialic acid; 30° C. for 18 hours. As for the experimental part: The substrate specificity of neuraminidase, that is, the linkage mode of sialic acid to a sugar chain that is cleaved by the neuraminidase can be determined by, but not limited to, a method using a pyridylaminated sugar chain. More specifically, the enzyme reaction by neuraminidase is performed using PA sugar chains in which sialic acid is linked by α2,3-linkage, α2,6-linkage, or α2,8-linkage (for example, pyridylaminated sugar chains such as PA-Sugar Chain 029, PA-Sugar Chain 023, and PA-Sugar Chain 034 available from Takara Bio Inc.). The reaction product is analyzed by high performance liquid chromatography, and the amount of sialic acid that was cleaved is calculated from the retention time and peak area of the reaction product.
To reveal the specificity of the neuraminidase activity of the JT-SHIZ-119-derived recombinant β-galactoside-α2,6-sialyltransferase N1C0, reactions using a PA-sugar chain shown in Table 4, to which sialic acid is linked via α2,3-, α2,6-, or α2,8-linkage (PA-Sugar Chain 029, PA-Sugar Chain 023, or PA-Sugar Chain 034, manufactured by Takara Bio Inc.) as a substrate were performed.
To a purified enzyme solution of the JT-SHIZ-119-derived recombinant β-galactoside-α2,6-sialyltransferase N1C0 (equivalent to 0.6 U as sialyltransferase activity), 1.5 μL of a 10 pmol/μL PA-sugar chain was added, followed by reaction at 30° C. for 18 hours. After completion of the reaction, the reaction solution was treated at 100° C. for 2 minutes to inactivate the enzyme, followed by HPLC to analyze the reaction product. In the case of using PA-Sugar Chain 023 as the substrate, the pyridylaminated sugar chain was eluted and analyzed under the same conditions as those in Example 1. In the case of using PA-Sugar Chain 029 or PA-Sugar Chain 034 as the substrate, the elution was performed using eluent A (100 mM acetate-triethylamine, pH 5.0) and eluent B (100 mM acetate-triethylamine containing 0.5% n-butanol, pH 5.0) with a linear gradient of 0 to 100% eluent B (0 to 35 min), 100% eluent B (35 to 50 min), and then a linear gradient of 100% to 30% eluent B (51 to 75 min). The analysis was performed under the conditions of Example 1. FIGS. 3-2 to 3-8 show the results.

The nature of data set [4]: Sialyltransferase activity of crude enzyme solution (14C CMP-NeuAc transfer to lactose). It is filed as biochemical. Conditions: crude enzyme extraction solution from transformed E. coli; with acceptor (120 mM lactose); 30° C. for 30 minutes; duplicate.

Values joined by “and” are separate entries in the source; they are usually repeats but may differ in a detail not shown here. Equal entries are not always repeated.

B1: SHIZ119-N1C0 (protein)
chain: MCNDNQNTVDVVVSTVNDNVIENNTYQVKPIDTPTTFDSYSWIQTCGTPILKDDEKYSLSFDFVAPELDQDEKFCFEFTGDVDGKRYVTQTNLTVVAPTLEVYVDHASLPSLQQLMKIIQQKNEYSQNERFISWGRIGLTEDNAEKLNAHIYPLAGNNTSQELVDAVIDYADSKNRLNLELNTNTAHSFPNLAPILRIISSKSNILISNINLYDDGSAEYVNLYNWKDTEDKSVKLSDSFLVLKDYFNGISSEKPSGIYGRYNWHQLYNTSYYFLRKDYLTVEPQLHDLREYLGGSLKQMSWDGFSQLSKGDKELFLNIVGFDQEKLQQEYQQSELPNFVFTGTTTWAGGETKEYYAQQQVNVVNNAINETSPYYLGREHDLFFKGHPRGGIINDIILGSFNNMIDIPAKVSFEVLMMTGMLPDTVGGIASSLYFSIPAEKVSFIVFTSSDTITDREDALKSPLVQVMMTLGIVKEKDVLFWSDLPDCSSGVCIAQY
modifications: beta-galacoside-alpha-2,6-sialyltransferase from phorobacterium leiognathi (without signal peptide)
Turning to B1, the Specific activity in data set [1] (sample: Crude enzyme solution) was 5.5 U/mg; in data set [1] (sample: HAP), 82.9 U/mg; in data set [1] (sample: Mono-Q), 36.2 U/mg; in data set [1] (sample: Q-sepharose) it was 35.6 U/mg. In addition, the “neuraminidase activity (in words)” value in data set [2] is “also has neuraminidase activity”. The “specificity of neuraminidase activity (linkage mode)” value in data set [3] is on record as “specific to sialic acid of α2,6-linkage”. Moreover, the “Transferred NeuAc” value in data set [4] was 7786 cpm and 8446 cpm.

(Values after US20120184016A1, “NOVEL PROTEIN AND GENE THAT CODES THEREFOR” (priority 2009, published 2012).)
